# Test results reported in US20230312750A1 (AD PHARMACEUTICALS, published 2023).
# What was measured:
# Assay in all cases: cell-based or functional assay
# [1] = target: T1, PCSK9-his (wild-type PCSK9, prepared by Akeso Biopharma) (human, UniProt Q8NBP7 31-692, limits assumed)
# [2] = target: PCSK9(D374Y)-his (Acrobio, cat. no. PCY-H5225) (UniProt Q8NBP7 31-692)
# [3] = target: T1, PCSK9-his (wild-type PCSK9, prepared by …); remark: listed apart in the source
"EC50 for inhibition of LDLR endocytosis by wild-type PCSK9 (BODIPY-LDL uptake, HepG2 cells) [1]","EC50 for inhibition of LDLR endocytosis by functionally enhanced mutant PCSK9 (PCSK9-D374Y) (BODIPY-LDL uptake, HepG2 cells) [2]",EC50 for MAB1 relieving the inhibition of LDL endocytosis in HepG2 cells by PCSK9 [3],"EC50 of MAB1 for inhibition of LDLR endocytosis by wild-type PCSK9 (BODIPY-LDL uptake, HepG2 cells) [1]",Binder
30.8 µg/mL,1.26 µg/mL,,,"evolocumab (purchased from AMGEN) (antibody, V domains shown) VH: QVQLVQSGAEVKKPGASVKVSCKASGYTLTSYGISWVRQAPGQGLEWMGWVSFYNGNTNYAQKLQGRGTMTTDPSTSTAYMELRSLRSDDTAVYYCARGYGMDVWGQGTTVTVSS VL: QSALTQPASVSGSPGQSITISCTGTSSDVGGYNSVSWYQQHPGKAPKLMIYEVSNRPSGVSNRFSGSKSGNTASLTISGLQAEDEADYYCNSYTSTSMVFGGGTKLTVL"
,,13 µg/mL,32.9 µg/mL,"MAB1 (antibody, V domains shown) VH: EVQLVESGGGLVQPGRSLRLSCAASGFTFSSYSMNWVRQAPGKGLEWVSGISSSSSYISYADSVQGRFTISRDNGKNSLYLQMNSLRAEDTALYFCAREYDFWSAYYDAFDVWGQGTMVTVSS VL: QSELTQPRSVSGSPGQSVTISCTGTSRNIGGGNDVHWYQQHPGKAPKLLISGVIERSSGVPDRFSGSKSGNTASLTISGLQAEDEADYYCQSFDGSLSGSVFGTGTDVTVL"
